According to patent US20250051409A1, “MODULATORS OF PHOSPHATIDYLSERlNE DECARBOXYLASE AND USE THEREOF” (THE NATIONAL INSTITUTE FOR BIOTECHNOLOGY IN THE NEGEV LTD., priority 2021, published 2025):

Columns and labels:
[1] = target: T1, phosphatidylserine decarboxylase (PSD) (Homo sapiens, UniProt Q9UG56); assay: MST interaction of purified SMAC with purified PSD; format: binding; settings: SMAC 1 μM, PSD 78-625 nM, 30 min at 37° C., read-out: dissociation constant (Kd) of PSD interaction with SMAC
T1 construct: Purified recombinant protein (full length) of human phosphatidylserine decarboxylase (PSD); His tag (N); purchased Acris-OriGene; host or cells: E. coli
T1 sequence (Q9UG56 53-409): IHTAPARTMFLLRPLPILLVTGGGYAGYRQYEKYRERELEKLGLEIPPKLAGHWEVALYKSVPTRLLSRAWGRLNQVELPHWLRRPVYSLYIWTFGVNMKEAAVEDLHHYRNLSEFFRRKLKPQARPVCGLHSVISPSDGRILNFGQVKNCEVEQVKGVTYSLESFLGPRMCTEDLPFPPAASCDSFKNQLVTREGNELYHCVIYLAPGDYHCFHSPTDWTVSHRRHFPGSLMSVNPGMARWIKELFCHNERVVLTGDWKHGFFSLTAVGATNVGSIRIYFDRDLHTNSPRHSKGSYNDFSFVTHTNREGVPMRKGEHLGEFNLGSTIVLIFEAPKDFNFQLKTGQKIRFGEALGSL
Description: (A) Representative IF images for SMAC and PSD colocalization in A549 cells. Scale bars represent 10, 2.5 μm, as indicated. (B) PLA assay showing direct interaction between SMAC and PSD in A549 cells (scale bar represent 10 μm). Immunoblot (C) and quantitative analysis cells (D) of PSD and SMAC expression levels relative to WI-38 (n=3). PSD activity (n=6) (E) and PE levels (n=6) (F) were analyzed in the indicated cell lines. (G) Purified PSD and SMAC used in this study. (H) PSD interaction with SMAC analyzed using the MST method (n=4). Purified SMAC was fluorescently labelled with the NanoTemper BLUE protein-labelling kit. SMAC (1 μM) was incubated with purified PISD (78-625 nM) for 30 min at 37° C., then thermophoresis was measured as described in the Materials and Methods section hereinbelow. […] (I) Inhibition of PSD activity by SMAC, as measured using the DSB-3 method (n=4). Results are the mean±SEM. *P≤0.05; **P≤0.01; ***P≤0.001; NS, nonsignificant.
(§1) Human recombinant SMAC (10339-H08E) was produced by Sino Biologicals (Wayne, PA, USA). […]
MST analysis was performed using a NanoTemper Monolith NT.115 apparatus as described earlier (Wienken C J, et al., 2010. Nat Commun 1, 100). […] After a 30-min incubation, 8 μl of the samples were loaded into a glass capillary (Monolith NT Capillaries), and thermophoresis was analyzed (LED 20%, IR laser 20%).

[2] = target: T1, phosphatidylserine decarboxylase (PSD); assay: PSD activity inhibition, DSB-3 method; format: biochemical; settings: read-out: IC50 of SMAC inhibiting PSD activity
Description: PE content in the lipid samples was measured as described previously (Choi J Y, et al. 2018. J Biol Chem 293, 1493-1503). Briefly, solvent was evaporated from the lipid samples under nitrogen gas, and samples were re-suspended in 0.8 mM Triton X-100. Sample aliquots were added to 96-well plates containing (50 μl) reaction mixture (80 mM NaCl, 2 mM K2HPO4, pH 7.4), and borate buffer (12.5 μl) (100 mM boric acid, 75 mM NaCl, 25 mM sodium tetraborate, pH 9). After mixing, 12.5 μl of 100 μM DSB-3, in 10 mM K2HPO4 (pH 7.4), were added and incubated for 2 h in the dark with shaking (100 rpm). Fluorescence was measured using excitation λex=403 nm and emission λem=508 nm. A calibration curve was obtained using PE (Biovision, CA) as a standard.
To determine PSD activity, purified enzyme (0.2-0.4 μM) or crude cell lysate (0.25-0.5 μg of protein) was incubated with PS (50 μM) for 45 min at 30° C. in the dark with shaking under the conditions described above for PE determination. PSD activity was measured by determining the PE produced as described above, except that the signal obtained in the absence of substrate PS (representing endogenous PE) was subtracted from the signal obtained in the presence of PS.
as §1

Kd [1]: 246 nM
IC50 [2]: 400 nM
B1: SMAC: Human recombinant SMAC (10339-H08E) produced by Sino Biologicals (protein)
chain: AVPIAQKSEPHSLSSEALMRRAVSLVTDSTSTFLSQTTYALIEAITEYTKAVYTLTSLYRQYTSLLGKMNSEEEDEVWQVIIGARAEMTSKHQEYLKLETTWMTAVGLSEMAAEAAYQTGADQASITARNHIQLVKLQVEEVHQLSRKAETKLAEAQIEELRQKTQEEGEERAESEQEAYLRED
